Measured values from the nanobody polyreactivity screen of Harvey et al. (2022).

Test: yeast display, Sf9 membrane polyspecificity reagent, FACS + sequencing; frameworks hold sequencing errors
Outline: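 Synthetic nanobody libraries on Saccharomyces cerevisiae BJ5465 were galactose-induced for 36–48 hours, stained 1 hour at 4 °C with 10% biotinylated, detergent-solubilized Sf9 membrane reagent and enriched on streptavidin microbeads. FACS then separated cells into low and high (top ~1%) gates by anti-HA (expression) and streptavidin (reagent binding) fluorescence. Genes were colony-PCR amplified, MiSeq 2 × 250 sequenced and CDR-length filtered. A clone's polyreactivity label is that of its gate of origin.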

Sequence | polyreactivity (PSR sort gate)
QVQLVESGGGLVQAGGSLRLSCAASGFTFYWYTMAWNRQAPGKERELVAAISRRGGSTSYADSVKGRFTISRDNAKNTVYLQMNSLKPDDTAVYYCAKTPGWTDYDYWGQGTQVTVSS | high polyreactivity
QVQLVESGGGLVQAGRSLRLSCAASGRTFPYYVMGWYRQAPGKDRELVAAINSGGRTNYADSVKGRFTISRDNAKNTVYLQLNSLKPEDTAVYYCTKRGHPARLGYYYWGQGTLVTVSS | low polyreactivity
QVQLVESGGGLDQAGGSLRLSCAASGSIISGYAMGWYRQAPGKERELVAAISSSGGRTYYADSVKGRFTISRDNAKNTVYLQMNSLKPEDTAVYYCNARQFSRYDYNYWGQGTQETVSS | high polyreactivity
QVQLVESGGGLVQAGGSLRLSCAASGSIIGVNAMGWYRQAPGKERELVAAISSTGGSTYYADSVKGRFTISRDNAKNTVYLQMNSLKPEDTAVYYCAAVLIDPDSNLETGGIFDYWGQGTQVTVSS | low polyreactivity
QVQLVESGRGLVQAGGSLRLRCAASGSTFNENVMGWYRQAPGKERELVAAIRTGSGSTYYADSVKGRFTISRDNAKNTVYLQMNSLKPEDTAVYYCYKDRGYSSLFSLFPGDYWGQGTQVTVSS | low polyreactivity
QVQLVESGGGLVQAGASRRLSCAASGSNFASYAMGWYRQAPGKERELVAAITRRGGSTDYADSVKGRFTISRDNEKYTVDLHMNLLKPEDTAVYYCPTYSYPERTGGQRTHYYWGQGTQVTVSS | high polyreactivity
QVQLVESGGGLVLAGGILRLSCAASGSTFKRYAMGWYRQAPGKVRELVAAITWRGGSTYYADSVKGRFTISRDNAKNTVYLQMNSLKPEDTAVYYCAARANYFGWPKSYYYWGQGTQVTVSS | high polyreactivity
QVQLVESGGGLVQAGGSLRLSCAASAFTFYSNAMGWYRQAPGTEREVVASISASGGSTYYADSVKGRFTISRDNAKNSVYLQMNSLKPEDTAVYYCAVYWSYLFDYLGQGTQVTVSS | high polyreactivity
QVQLVESGGGLVQAGGSLRLSCAASGLIFRFNAMGWYRQAPGKERELVAAITRAGSTYYADSVKGRFTISRDNAKNTVYLQMNSLKPEDTAVYYCAAGQYRLPQRGYGYWGQGTQVTVSS | high polyreactivity
QVQLVESGGGLVQAGGSLRLSCAASGITFSTYAMGWYIQAPGKERELVAAITKSGGSTYYADSVKGRFTISRDNAKNTVYLQMNRLKPEDTAVYYCAARFPHRHYLLYTYDYWGQGTQVTVSS | low polyreactivity
QVQLVESGGGLVQAGGSLRLSCAASGSIFTPYAMGWYRQAPGKERELVADIDASGGGTYADSVKGRFTISRDNAKNTVYLQMNSLKPEDTAVYYCNTDPYSSAWYNYDYWGQGTQVTVSS | low polyreactivity
QVQLVESGGGLVQAGGSLRLSCAASGFIFQRNAMGWYRQAPGKERELVAAIRSSGGTTYYADSVKGRFTISRDNAKNTVYLQMNSLKPEDTAVYYCAAVTTSKFNYWGQGSQVTVSS | low polyreactivity
QVQLVESGGGLVQAGGSLRLSCAASGSTFGYNGMGWYRQAPGKERELVAAISGGARTYADSVKGRFTISRDNAKNTVYLQMNSLKPEDTAVYYCAADSPVSVTADDGYWGQGTQVTVSS | low polyreactivity
QVQLVESGGGLVQAGGSLRLSCAASGSTFPPYAMGWYRQAPGKERELVAAISNVGSTNYADSVKGRFTISRDNAKNTVYLQMNSLKPEETAVYYCAADFWERFALWGWIYLDYDYWGQGTQVTVSS | low polyreactivity
PVQHVESGGGLVQAGGSLRLSCAASGSIFVWYAMGWYRQAPGKERELVAAITINCGSTYYADSVKGRFTISRDTAKNIVYLQMNSLKPEAKAVYYCAADYYTRDRYEFDSWGQGTQVTVSS | low polyreactivity
QVQLVESGGGLVQAGGSLRLSCAASGFTFYSNAMGWYRQAPGKERELVAAITWRGGSTNYADSVKGRFTISRDNAKNTVYLHMNSLKPEETAVYYCAAVTYWFWPGMDYWGQGTEVTVSS | low polyreactivity
QVQLVESGGGLVQAGGSLRLSCAASGSILREYTMGWSRQAPGKEMELVAAITYSGDSTYYADSVKGRFTISRDNAKNTVYLHMNSLKPEDTAVYYCNKKYRSRWQGPFDYWGQGTLVTVSS | high polyreactivity
